The supplement of paper PMC9112550, “Optimization of the antimicrobial peptide Bac7 by deep mutational scanning” (BMC Biology, 2022)

system: Escherichia coli TOP10; assay: shrunken log2 fold change of peptide-encoding DNA abundance (4.5 h post-induction vs induction); higher = less antimicrobial activity (less host growth inhibition); details: time post-induction: 4.5 h; library: site-saturation at positions 5, 18, 19, 20
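Also: peptides expressed intracellularly from a pBAD plasmid library in pooled LB shake-flask culture, induced with 0.3% L-arabinose, DNA abundance read by NGS, three biological replicates, DESeq2 with apeglm shrinkage.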

Sequence	shrunken log2 fold change
RRIRERPPRLPRPRPRPERNPRP	-0.0672
RRIRDRPPRLPRPRPRPGPMPRP	-0.00245
RRIRLRPPRLPRPRPRPYETPRP	-0.0853
RRIRGRPPRLPRPRPRPPLNPRP	0.789
RRIRQRPPRLPRPRPRPKNNPRP	-0.616
RRIRIRPPRLPRPRPRPDMHPRP	-0.0689
RRIRARPPRLPRPRPRPQERPRP	0.0703
RRIRKRPPRLPRPRPRPEVYPRP	-0.0138
RRIRLRPPRLPRPRPRPHARPRP	0.416
RRIRERPPRLPRPRPRPRWCPRP	0.0485
RRIRCRPPRLPRPRPRPPHEPRP	1.23
RRIRHRPPRLPRPRPRPHFHPRP	-0.648
RRIRYRPPRLPRPRPRPWCEPRP	-0.468
RRIRQRPPRLPRPRPRPVLNPRP	2.89
RRIRMRPPRLPRPRPRPYEPPRP	-0.352
RRIRGRPPRLPRPRPRPDRDPRP	0.326
RRIRDRPPRLPRPRPRPPANPRP	0.0989
RRIRQRPPRLPRPRPRPWKWPRP	-0.299
RRIRLRPPRLPRPRPRPYGDPRP	-0.0122
RRIRMRPPRLPRPRPRPENKPRP	1.48
RRIRCRPPRLPRPRPRPYFDPRP	-0.446
RRIRKRPPRLPRPRPRPQSEPRP	0.0585
RRIRPRPPRLPRPRPRPCRKPRP	-0.134
RRIRERPPRLPRPRPRPQNGPRP	-0.0634
RRIRWRPPRLPRPRPRPASWPRP	0.576

Sequence	shrunken log2 fold change
RRIRERPPRLPRPRPRPALYPRP	-0.129
RRIRARPPRLPRPRPRPQHCPRP	0.138
RRIRERPPRLPRPRPRPYAPPRP	-0.624
RRIRLRPPRLPRPRPRPDICPRP	-0.102
RRIRCRPPRLPRPRPRPYITPRP	-1.44
RRIRNRPPRLPRPRPRPMYSPRP	-0.479
RRIRSRPPRLPRPRPRPKWVPRP	-0.209
RRIRVRPPRLPRPRPRPGRFPRP	0.277
RRIRQRPPRLPRPRPRPREAPRP	0.384
RRIRHRPPRLPRPRPRPVFWPRP	0.0698
RRIRIRPPRLPRPRPRPRFCPRP	-0.00189
RRIRSRPPRLPRPRPRPAMIPRP	0.365
RRIRRRPPRLPRPRPRPAPEPRP	2.07
RRIRQRPPRLPRPRPRPSLVPRP	-0.0806
RRIRQRPPRLPRPRPRPRQNPRP	0.402
RRIRMRPPRLPRPRPRPCDWPRP	0.179
RRIRDRPPRLPRPRPRPTVMPRP	-0.221
RRIRTRPPRLPRPRPRPKLQPRP	-0.114
RRIRPRPPRLPRPRPRPENHPRP	-0.0822
RRIRERPPRLPRPRPRPHDLPRP	-0.343
RRIRSRPPRLPRPRPRPGPTPRP	0.788
RRIRMRPPRLPRPRPRPGEHPRP	0.987
RRIRSRPPRLPRPRPRPVGTPRP	-0.0487
RRIRTRPPRLPRPRPRPCHNPRP	-0.0285
RRIRWRPPRLPRPRPRPRRVPRP	0.122

Sequence	shrunken log2 fold change
RRIRFRPPRLPRPRPRPHVRPRP	-0.271
RRIRSRPPRLPRPRPRPQAKPRP	0.0225
RRIRHRPPRLPRPRPRPCCMPRP	-0.43
RRIRVRPPRLPRPRPRPCKSPRP	-0.214
RRIRFRPPRLPRPRPRPDFSPRP	-0.259
RRIRHRPPRLPRPRPRPDIRPRP	0.0226
RRIRSRPPRLPRPRPRPTVWPRP	0.185
RRIRQRPPRLPRPRPRPDIFPRP	-0.104
RRIRHRPPRLPRPRPRPWWYPRP	-0.0664
RRIRFRPPRLPRPRPRPDELPRP	0.0112
RRIRSRPPRLPRPRPRPSDPPRP	-0.397
RRIRHRPPRLPRPRPRPWNCPRP	-0.366
RRIRNRPPRLPRPRPRPLNIPRP	-0.389
RRIRCRPPRLPRPRPRPMQHPRP	-0.173
RRIRVRPPRLPRPRPRPSDIPRP	-0.965
RRIRMRPPRLPRPRPRPYDAPRP	0.11
RRIRARPPRLPRPRPRPGDFPRP	0.383
RRIRERPPRLPRPRPRPGFDPRP	0.0961
RRIRSRPPRLPRPRPRPNFKPRP	-0.0661
RRIRARPPRLPRPRPRPSVVPRP	-0.0244
RRIRCRPPRLPRPRPRPKIAPRP	0.0102
RRIRNRPPRLPRPRPRPNGNPRP	-0.0621
RRIRERPPRLPRPRPRPWKYPRP	-0.0185
RRIRQRPPRLPRPRPRPMSWPRP	-0.0294
RRIRPRPPRLPRPRPRPRCWPRP	0.689

Sequence	shrunken log2 fold change
RRIRYRPPRLPRPRPRPFLDPRP	-0.00748
RRIRKRPPRLPRPRPRPDTLPRP	0.0227
RRIRERPPRLPRPRPRPFKHPRP	-0.255
RRIRNRPPRLPRPRPRPTMFPRP	-0.247
RRIRERPPRLPRPRPRPQCHPRP	-0.449
RRIRHRPPRLPRPRPRPTHNPRP	-0.211
RRIRKRPPRLPRPRPRPVILPRP	-0.612
RRIRRRPPRLPRPRPRPTQKPRP	0.788
RRIRTRPPRLPRPRPRPFNNPRP	-0.318
RRIRLRPPRLPRPRPRPKECPRP	-0.0179
RRIRARPPRLPRPRPRPVFKPRP	0.115
RRIRWRPPRLPRPRPRPFWSPRP	0.284
RRIRNRPPRLPRPRPRPFTPPRP	-0.197
RRIRKRPPRLPRPRPRPCLPPRP	0.0253
RRIRARPPRLPRPRPRPEIAPRP	0.992
RRIRMRPPRLPRPRPRPAPEPRP	0.874
RRIRCRPPRLPRPRPRPEAAPRP	1.11
RRIRYRPPRLPRPRPRPEWRPRP	0.172
RRIRSRPPRLPRPRPRPFASPRP	0.0202
RRIRARPPRLPRPRPRPSVLPRP	-0.167
RRIRFRPPRLPRPRPRPMQQPRP	-0.0268
RRIRERPPRLPRPRPRPYIPPRP	-0.416
RRIRARPPRLPRPRPRPCLFPRP	-0.131
RRIRPRPPRLPRPRPRPGQDPRP	-0.0902
RRIRYRPPRLPRPRPRPTNIPRP	-0.841

Sequence	shrunken log2 fold change
RRIRHRPPRLPRPRPRPNEEPRP	-0.00146
RRIRVRPPRLPRPRPRPWVTPRP	-0.375
RRIRVRPPRLPRPRPRPLLNPRP	0.159
RRIRKRPPRLPRPRPRPCGVPRP	0.143
RRIRCRPPRLPRPRPRPIGQPRP	0.0567
RRIRNRPPRLPRPRPRPNAQPRP	-0.119
RRIRIRPPRLPRPRPRPYKRPRP	-0.0487
RRIRDRPPRLPRPRPRPYHKPRP	-0.0174
RRIRRRPPRLPRPRPRPQMNPRP	-0.107
RRIRDRPPRLPRPRPRPPGPPRP	1.9
RRIRPRPPRLPRPRPRPISYPRP	-0.163
RRIRDRPPRLPRPRPRPNIRPRP	-0.0481
RRIRPRPPRLPRPRPRPYARPRP	-0.0595
RRIRSRPPRLPRPRPRPCRSPRP	-0.0435
RRIRWRPPRLPRPRPRPQIRPRP	-0.0767
RRIRLRPPRLPRPRPRPVSLPRP	-0.0897
RRIRNRPPRLPRPRPRPLHLPRP	-0.59
RRIRQRPPRLPRPRPRPDDPPRP	-0.0062
RRIRIRPPRLPRPRPRPNNTPRP	-1.09
RRIRRRPPRLPRPRPRPMGSPRP	-0.0322
RRIRHRPPRLPRPRPRPLSTPRP	-0.0859
RRIRSRPPRLPRPRPRPEYPPRP	-0.128
RRIRLRPPRLPRPRPRPDVAPRP	0.093
RRIRYRPPRLPRPRPRPSQGPRP	-0.031
RRIRWRPPRLPRPRPRPLAKPRP	0.499

Sequence	shrunken log2 fold change
RRIRKRPPRLPRPRPRPNGMPRP	0.0655
RRIRYRPPRLPRPRPRPHYQPRP	-0.522
RRIRSRPPRLPRPRPRPRFIPRP	0.00415
RRIRSRPPRLPRPRPRPEEVPRP	0.0829
RRIRGRPPRLPRPRPRPVGNPRP	0.204
RRIRDRPPRLPRPRPRPLLWPRP	0.754
RRIRKRPPRLPRPRPRPDHHPRP	-0.37
RRIRDRPPRLPRPRPRPHGQPRP	0.237
RRIRCRPPRLPRPRPRPLHEPRP	-0.23
RRIRSRPPRLPRPRPRPSPVPRP	-0.0362
RRIRGRPPRLPRPRPRPQFCPRP	0.719
RRIRSRPPRLPRPRPRPCKAPRP	0.00989
RRIRWRPPRLPRPRPRPIHYPRP	-1.07
RRIRLRPPRLPRPRPRPSFGPRP	0.197
RRIRNRPPRLPRPRPRPFPSPRP	-0.0692
RRIRVRPPRLPRPRPRPLLLPRP	-0.52
RRIRIRPPRLPRPRPRPPWMPRP	-0.0904
RRIRFRPPRLPRPRPRPGDEPRP	0.0387
RRIRCRPPRLPRPRPRPYDDPRP	-0.396
RRIRGRPPRLPRPRPRPVNNPRP	-0.0355
RRIRRRPPRLPRPRPRPGETPRP	0.309
RRIRGRPPRLPRPRPRPEAMPRP	0.59
RRIRNRPPRLPRPRPRPCPLPRP	0.011
RRIRCRPPRLPRPRPRPNGYPRP	-0.122
RRIRERPPRLPRPRPRPDIHPRP	-0.512
